Results on 94 variants are retold here after the supplement of paper PMC10567573.

The chains are these.
B1: TRIM39 (parent)
chain: YPCVLATEGFTSGRHYWEVEVGDK
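Note: lentivirally expressed fusions sorted by FACS into six bins by GFP to DsRed ratio, PSI derived from sequencing read proportions per bin multiplied by bin number.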

The variants in the data set derive from B1. As to the kind of experiment: protein stability index of a GFP-peptide fusion (GPS, HEK-293T) (PSI 1-6); higher = more stable. The following applies: c terminus: a fixed tail appended.
Regarding YPCVLATEGFTSGDHYWEVEVGDK [R14D], the protein stability index worked out at 2.66.

Regarding YPCVLATEGFTSGCHYWEVEVGDK [R14C], the protein stability index is 1.79.

As to YPCVLATEGFTSGGHYWEVEVGDK [R14G], the protein stability index turned out to be 2.48.

As to YPCVLATEGFTSGYHYWEVEVGDK [R14Y], the protein stability index was 1.95.

As for YPCVLATEGFTSGVHYWEVEVGDK [R14V], the protein stability index turned out to be 2.06.

Turning to YPCVLATEGFTSGQHYWEVEVGDK [R14Q], the protein stability index turned out to be 2.36.

Consider YPCVLATEGFTSGMHYWEVEVGDK [R14M], for which the protein stability index was 1.66.

Consider YPCVLATEGFTSGKHYWEVEVGDK [R14K], for which the protein stability index was determined as 1.69.

In the case of YPCVLATEGFTSGSHYWEVEVGDK [R14S], the protein stability index turned out to be 2.07.

For YPCVLATEGFTSGEHYWEVEVGDK [R14E], the protein stability index was determined as 3.04.

Regarding YPCVLATEGFTSGHHYWEVEVGDK [R14H], the protein stability index is 1.71.

Turning to YPCVLATEGFTSGWHYWEVEVGDK [R14W], the protein stability index was determined as 1.66.

In the case of YPCVLATEGFTSGFHYWEVEVGDK [R14F], the protein stability index worked out at 1.81.

Take YPCVLATEGFTSGRHYWDVEVGDK [E18D]: the protein stability index stood at 1.45.

As for YPCVLATEGFTSGRHYWFVEVGDK [E18F], the protein stability index turned out to be 1.81.

With YPCVLATEGFTSGRHYWGVEVGDK [E18G], the protein stability index turned out to be 2.82.

On to YPCVLATEGFTSGRHYWAVEVGDK [E18A], for which the protein stability index came out at 3.12.

As for YPCVLATEGFTSGRHYWHVEVGDK [E18H], the protein stability index worked out at 1.43.

Take YPCVLATEGFTSFRHYWEVEVGDK [G13F]: the protein stability index turned out to be 1.56.

Turning to YPCVLATEGFTSWRHYWEVEVGDK [G13W], the protein stability index turned out to be 1.47.

As to YPCVLATEGFTSDRHYWEVEVGDK [G13D], the protein stability index is 2.24.

Turning to YPCVLATEGFTSCRHYWEVEVGDK [G13C], the protein stability index stood at 1.91.

Turning to YPCVLATEGFTSYRHYWEVEVGDK [G13Y], the protein stability index was 1.2.

For YPCVLATEGFTSLRHYWEVEVGDK [G13L], the protein stability index came to 1.95.

With YPCVLATEGFTSARHYWEVEVGDK [G13A], the protein stability index was 1.48.

As to YPCVLATEGFTSPRHYWEVEVGDK [G13P], the protein stability index stood at 1.74.

As to YPCVLATEGFTSSRHYWEVEVGDK [G13S], the protein stability index amounted to 2.03.

In the case of YPCVLATEGFTSERHYWEVEVGDK [G13E], the protein stability index was 1.87.

Consider YPCVLATEGFTSHRHYWEVEVGDK [G13H], for which the protein stability index amounted to 1.46.

Take YPCVLATEGFTSNRHYWEVEVGDK [G13N]: the protein stability index was found to be 1.57.

As for YPCVLATEGFTSQRHYWEVEVGDK [G13Q], the protein stability index worked out at 1.71.

For YPCVLATEGFTSVRHYWEVEVGDK [G13V], the protein stability index came to 2.15.

On to YPCVLATEGFTSKRHYWEVEVGDK [G13K], for which the protein stability index came to 2.39.

Turning to YPCVLATEGFTSMRHYWEVEVGDK [G13M], the protein stability index worked out at 1.59.

Consider YPCVLATEGFTSTRHYWEVEVGDK [G13T], for which the protein stability index is 1.72.

For YPCVLATEGFTSRRHYWEVEVGDK [G13R], the protein stability index was determined as 2.09.

Regarding YPCVLATEGFTSIRHYWEVEVGDK [G13I], the protein stability index was 1.73.

For YPCVLATEGFTSGRHFWEVEVGDK [Y16F], the protein stability index was found to be 1.2.

In the case of YPCVLATEGFTSGRHLWEVEVGDK [Y16L], the protein stability index came out at 1.76.

As to YPCVLATEGFTSGRHGWEVEVGDK [Y16G], the protein stability index was found to be 2.98.

Consider YPCVLATEGFTSGRHPWEVEVGDK [Y16P], for which the protein stability index came to 1.78.

For YPCVLATEGFTSGRHAWEVEVGDK [Y16A], the protein stability index came out at 2.38.

As to YPCVLATEGFTSGRHIWEVEVGDK [Y16I], the protein stability index came to 2.33.

As for YPCVLATEGFTSGRHTWEVEVGDK [Y16T], the protein stability index amounted to 1.35.

With YPCVLATEGFTSGRHSWEVEVGDK [Y16S], the protein stability index amounted to 1.75.

YPCVLATEGFTSGRHWWEVEVGDK [Y16W]: the protein stability index is 4.12.

As to YPCVLATEGFTSGRHDWEVEVGDK [Y16D], the protein stability index is 3.52.

YPCVLATEGFTSGRHCWEVEVGDK [Y16C]: the protein stability index is 1.5.

For YPCVLATEGFTSGRHRWEVEVGDK [Y16R], the protein stability index worked out at 2.02.

Take YPCVLATEGFTSGRHEWEVEVGDK [Y16E]: the protein stability index was determined as 2.6.

Regarding YPCVLATEGFTSGRHMWEVEVGDK [Y16M], the protein stability index came out at 2.45.

On to YPCVLATEGFTSGRHHWEVEVGDK [Y16H], for which the protein stability index came to 2.04.

Turning to YPCVLATEGFTSGRHVWEVEVGDK [Y16V], the protein stability index worked out at 2.08.

As to YPCVLATEGFTSGRHKWEVEVGDK [Y16K], the protein stability index was 2.38.

Take YPCVLATEGFTSGRHQWEVEVGDK [Y16Q]: the protein stability index amounted to 2.16.

Consider YPCVLATEGFTSGRHNWEVEVGDK [Y16N], for which the protein stability index came out at 2.56.

As for YPCVLATEGFTSGRHYGEVEVGDK [W17G], the protein stability index came to 3.44.

On to YPCVLATEGFTSGRHYHEVEVGDK [W17H], for which the protein stability index worked out at 3.07.

As to YPCVLATEGFTSGRHYDEVEVGDK [W17D], the protein stability index was found to be 3.88.

In the case of YPCVLATEGFTSGRHYNEVEVGDK [W17N], the protein stability index came to 3.77.

Regarding YPCVLATEGFTSGRHYVEVEVGDK [W17V], the protein stability index was found to be 2.44.

On to YPCVLATEGFTSGRHYLEVEVGDK [W17L], for which the protein stability index came to 2.97.

For the variant YPCVLATEGFTSGRHYQEVEVGDK [W17Q], the protein stability index was 3.68.

For the variant YPCVLATEGFTSGRHYREVEVGDK [W17R], the protein stability index was determined as 2.88.

On to YPCVLATEGFTSGRHYEEVEVGDK [W17E], for which the protein stability index was 3.84.

In the case of YPCVLATEGFTSGRHYYEVEVGDK [W17Y], the protein stability index is 2.24.

On to YPCVLATEGFTSGRHYSEVEVGDK [W17S], for which the protein stability index worked out at 3.62.

With YPCVLATEGFTSGRHYMEVEVGDK [W17M], the protein stability index was 3.21.

As to YPCVLATEGFTSGRHYTEVEVGDK [W17T], the protein stability index is 3.6.

Consider YPCVLATEGFTSGRHYFEVEVGDK [W17F], for which the protein stability index worked out at 2.41.

For the variant YPCVLATEGFTSGRHYAEVEVGDK [W17A], the protein stability index stood at 3.49.

Consider YPCVLATEGFTSGRHYIEVEVGDK [W17I], for which the protein stability index was 2.95.

Consider YPCVLATEGFTSGRHYKEVEVGDK [W17K], for which the protein stability index amounted to 2.76.

Consider YPCVLATEGFTSGRHYPEVEVGDK [W17P], for which the protein stability index worked out at 3.54.

Take YPCVLATEGFTSGRHYCEVEVGDK [W17C]: the protein stability index worked out at 3.22.

Take YPCVLATEGFTSGRIYWEVEVGDK [H15I]: the protein stability index stood at 1.22.

Take YPCVLATEGFTSGRKYWEVEVGDK [H15K]: the protein stability index was found to be 2.06.

As to YPCVLATEGFTSGRFYWEVEVGDK [H15F], the protein stability index stood at 1.9.

For the variant YPCVLATEGFTSGRCYWEVEVGDK [H15C], the protein stability index amounted to 2.2.

Take YPCVLATEGFTSGREYWEVEVGDK [H15E]: the protein stability index came to 3.05.

For YPCVLATEGFTSGRQYWEVEVGDK [H15Q], the protein stability index worked out at 2.6.

For the variant YPCVLATEGFTSGRPYWEVEVGDK [H15P], the protein stability index worked out at 2.16.

As to YPCVLATEGFTSGRMYWEVEVGDK [H15M], the protein stability index came out at 1.32.

In the case of YPCVLATEGFTSGRDYWEVEVGDK [H15D], the protein stability index turned out to be 2.93.

For the variant YPCVLATEGFTSGRVYWEVEVGDK [H15V], the protein stability index was found to be 2.27.

As to YPCVLATEGFTSGRRYWEVEVGDK [H15R], the protein stability index was found to be 1.97.

Turning to YPCVLATEGFTSGRWYWEVEVGDK [H15W], the protein stability index was 2.1.

Consider YPCVLATEGFTSGRYYWEVEVGDK [H15Y], for which the protein stability index is 2.58.

Regarding YPCVLATEGFTSGRAYWEVEVGDK [H15A], the protein stability index was found to be 2.61.

With YPCVLATEGFTSGRSYWEVEVGDK [H15S], the protein stability index is 2.16.

Regarding YPCVLATEGFTSGRTYWEVEVGDK [H15T], the protein stability index amounted to 2.17.

Turning to YPCVLATEGFTSGRLYWEVEVGDK [H15L], the protein stability index was determined as 1.56.

Consider YPCVLATEGFTSGRNYWEVEVGDK [H15N], for which the protein stability index is 2.76.

Regarding YPCVLATEGFTSGRGYWEVEVGDK [H15G], the protein stability index worked out at 1.98.
